{
  "source": "paper PMC3903622",
  "about": "“Kinetics of Phosphomevalonate Kinase from Saccharomyces cerevisiae” (PLoS ONE, 2014)",
  "proteins": {"B1": {"name": "phosphomevalonate kinase (PMK) from S. cerevisiae; PMK-His (Saccharomyces cerevisiae S288C) (protein)", "chain": "MSELRAFSAPGKALLAGGYLVLDTKYEAFVVGLSARMHAVAHPYGSLQGSDKFEVRVKSKQFKDGEWLYHISPKSGFIPVSIGGSKNPFIEKVIANVFSYFKPNMDDYCNRNLFVIDIFSDDAYHSQEDSVTEHRGNRRLSFHSHRIEEVPKTGLGSSAGLVTVLTTALASFFVSDLENNVDKYREVIHNLAQVAHCQAQGKIGSGFDVAAAAYGSIRYRRFPPALISNLPDIGSATYGSKLAHLVDEEDWNITIKSNHLPSGLTLWMGDIKNGSETVKLVQKVKNWYDSHMPESLKIYTELDHANSRFMDGLSKLDRLHETHDDYSDQIFESLERNDCTCQKYPEITEVRDAVATIRRSFRKITKESGADIEPPVQTSLLDDCQTLKGVLTCLIPGAGGYDAIAVITKQDVDLRAQTANDKRFSKVQWLDVTQADWGVRKEKDPETYLDK", "notes": "E. coli codon-optimized gene in pET-52b+, C-terminal 6xHis tag (removal not mentioned), expressed in E. coli BL21(DE3), Ni-NTA purified"}},
  "key": {"purified protein [1]": {"substrate": "Nc1ncnc2c1ncn2[C@@H]1O[C@H](COP(=O)(O)OP(=O)(O)OP(=O)(O)O)[C@@H](O)[C@H]1O", "experiment": "purified protein", "assay_type": "biochemical, Saccharomyces cerevisiae", "details": "co-substrate mevalonate-5-phosphate (0.2–10.0 mM range), 10 mM MgCl2, 100 mM KCl, 200 mM Tris pH 7.2, 30°C"}, "purified protein [2]": {"substrate": "C[C@@](O)(CCOP(=O)(O)O)CC(=O)O", "experiment": "purified protein", "assay_type": "biochemical, Saccharomyces cerevisiae", "details": "co-substrate ATP (0.1–8.0 mM range), 10 mM MgCl2, 100 mM KCl, 200 mM Tris pH 7.2, 30°C"}},
  "data": [
    {"protein": "B1", "values": [
      {"measurement": "Km", "setting": "purified protein [1]", "value": 98.3, "unit": "µM"},
      {"measurement": "Km", "setting": "purified protein [2]", "value": 885, "unit": "µM"}
    ]}
  ]
}
